Test results published in patent US20110097270A1 (published 2011).

Target: hepatitis B virus (HBV) inoculum (hepatitis B virus)
Test: cell-based or functional assay

B1: HBV#8 Fab (Fab, V domains shown)
VH: EVQLLESGPGLVKPSQTLSLTCAVSGAFMTSDYLYWSWLRQPPGKGPEWIGGIYTTGRSHYNPSLRGRATLSVDTSKNQFSLELNSVTAADTAVYYCARGQYHNWGPSLFDYYNYYYMDVWGKGTTVTVSS
VL: AAELTQSPSSLSASVGDRVTITCRASQDISNYLAWYQQKPGKAPKLLIYSASRLQSGVPSRFSGSGSGTDYTLTLSSLHPEDSATYYCHQYHSAPWTFGQGTKVEIKR
- P/N of HBsAg in cell supernatant (RIA, day 12) at MAb 0.01 µg ml^-1: 82 P/N ratio
- P/N of HBsAg in cell supernatant (RIA, day 12) at MAb 0.1 µg ml^-1: 83.3 P/N ratio
- P/N of HBsAg in cell supernatant (RIA, day 12) at MAb 1.0 µg ml^-1: 55.8 P/N ratio
- P/N of HBsAg in cell supernatant (RIA, day 12) at MAb 10.0 µg ml^-1: 4.1 P/N ratio
